Test results from patent US20200062847A1 (XIANGTAN TENGHUA BIOSCIENCE, published 2020).

T1: mouse PD-1 (mouse, UniProt Q02242 25-167, limits assumed)
T1 sequence (looked up): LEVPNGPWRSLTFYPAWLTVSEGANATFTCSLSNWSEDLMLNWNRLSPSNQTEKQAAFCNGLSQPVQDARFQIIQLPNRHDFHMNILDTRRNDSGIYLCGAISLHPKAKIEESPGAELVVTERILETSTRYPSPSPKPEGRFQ


What was measured:
recombinant human PD-1 [1] = target: T2, recombinant human PD-1 (human, UniProt Q15116 25-167, limits assumed); test: SPR (Biacore), antibody captured via anti-human IgG
T2 construct: also called human PD-1 protein; soluble PD-1
T2 sequence (Q15116 25-167 limits assumed): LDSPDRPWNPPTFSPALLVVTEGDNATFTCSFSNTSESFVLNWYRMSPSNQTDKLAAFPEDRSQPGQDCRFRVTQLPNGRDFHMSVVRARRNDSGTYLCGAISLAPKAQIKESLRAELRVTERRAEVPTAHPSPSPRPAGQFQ
Description: This technology allows the label-free determination of the microscopic rate constants for binding (kₐ) and dissociation (kd) of a ligand to a receptor. […] The kinetic traces were evaluated with the Biacore™ T2000. The full set of these traces with increasing concentrations is taken together and is called a run. Two zero concentration samples (blank runs) were included in each analyte concentration series to allow double-referencing during data evaluation. The kinetic rate constants for association (kₐ) and dissociation (kd) as well as the dissociation equilibrium constant (KD) were calculated.

recombinant human PD-1 [2] = target: T2, recombinant human PD-1; test: competition ELISA on coated human PD-1, antibody titrated against 50 ng/ml Nivolumab as competitor; EC50 estimated at half-maximal absorbance
Description: The assay was conducted essentially as follows. […] HRP-conjugated anti-human antibody was added and incubated.

mouse PD-1 = target: T1, mouse PD-1; test: ELISA

| Binder | koff (recombinant human PD-1 [1]) [s⁻¹] | kon (recombinant human PD-1 [1]) [M⁻¹ s⁻¹] | EC50 (recombinant human PD-1 [2]) [nM] | binding result (mouse PD-1) |
| --- | --- | --- | --- | --- |
| Abs-h-923 (antibody, V domains shown) VH: QVQLVQSGAEVKKPGASVKVSCKASGYTFTSYAMHWVRQAPGQRLEWMGWSNAGNGNTKYSQEFQGRVTITRDTSASTAYMELSSLRSEDMAVYYCARYWYFDLWGRGTLVTVSS VL: EIALTQSPATLSLSPGERATLSCRASQSGSSFVAWYQQKPGQAPRLLIYANNKRETGIPARFSGSGSGTDFTLTISSLEPEDFAVYYCGTYTDSPPTFGQGTKVEIKR | 7.9e-06 | 1.15e+06 | 0.41 | – |
| Abs-h-924 (antibody, V domains shown, also called humanized anti-human-PD-1 recombinant antibody Abs-h-924) VH: QVQLVESGGGVVQPGRSLRLSCAASGFTFSSYGMHWVRQAPGKGLEWVAVISYDGSNKYYADSVKGRFTISRDNSKNTLYLQMNSLRAEDTAVYYCARYYYYYGMDVWGQGTTVTVSS VL: EIVLTQSPATLSLSPGERATISCRGSQSLSSYLAWYQQRPGQAPRLLIYDVSNRATGIPARFSGSGSGTDFTLTISGLEPEDFAVYYCQQRTNWPRAFGQGTKVEIKR | 3.9e-06 | 1.22e+06 | 0.14 | – |
| Abs-h-925 (antibody, V domains shown, also called humanized anti-human-PD-1 recombinant antibody Abs-h-925) VH: QVQLVDSGGGVVQPGRSLRLSCAASAFTFSSYAMHWVRQAPGKGLEWVAVISYDGSNKYYADSVKGRFTISRDNSKNTLYLQMNSLRAEDTAVYYCARYYYYYYMDVWGKGTTVTVSS VL: EIVLTQSPATLSLSPGERATLSCRASQSVSSYLAWYQQKPGQAPRLLIYEASNRATGIPARFSGSGSGTDFTLTISSLEPEDFAVYYCQQRTNWPPAFGQGTKVEIKR | 3.2e-06 | 1.19e+06 | 0.15 | – |
| Abs-r-924 (antibody, V domains shown, Rabbit recombinant antibody expressed in HEK293; also called rabbit anti-human-PD-1 recombinant antibody Abs-r-924) VH: QESVKESGGGLVKPGDTLTLTCKVSGFSISSYGMHWVRQAPGKGLEWIGVISYDGSNKYYADSVKGRFTISRNTNQNTVTLKMTSLTADDTATYFCARYYYYYGMDVWGQGTLVTVSS VL: EIVLTQTPSSVSAAVGSTVTINCRGSQSLSSYLAWYQQKPGQRPKLLIYDVSNRATGVPRRFKGSGSGTQFTLTISGVQADDAATYYCQQRTNWPRAFGGGTKVDVKG | – | – | – | no binding |
